Each block holds one binder with its values, some of them ahead of it.
Assays:
[1] = molecular target: T1, human complement C3b protein (human, UniProt P01024 23-667; P01024 749-1663); experiment: cell-based or functional assay
[2] = molecular target: T2, cynomolgus complement C3b protein (cynomolgus monkey (Macaca fascicularis)); experiment: cell-based or functional assay
human C3d [3] = molecular target: T3, human C3d (human, UniProt P01024 1002-1303); experiment: cross reactivity, ELISA on C3d, anti-His detection
T3 construct: domain: C3d
Experimental: In order to determine whether the anti-C3b antibodies described herein can bind to complement pathway components iC3b and C3c, the following steps were performed: Directly add iC3b(complement Technologies A115), C3d (complement Technologies A117), or C3c (complement Technologies A116), at 2 μg/ml in Carbonate Buffer onto Coat Maxisorp plate Nunc (442404) at 100 μl per well. Seal plates and incubate at 4° C. overnight. Aspirate plates and wash 3 times with PBS/0.5% Tween 20. Block plates with Diluent (PBS, 4% BSA Fraction V (Fisher ICN16006980), 0.1% Tween 20 (Sigma P1379), 0.1% Triton X-100 (Sigma P234729)) and incubate for 2 h at room temperature or overnight at 4° C. Then wash plates once with PBS/0.5% Tween 20. Dilute Fabs at 100 nM and subsequent dilutions (or higher concentration if needed) in diluent and plate 100 μl per well. Incubate at room temperature for 1 h. Wash plates 3 times with PBS/0.5% Tween 20. Add 100 μl/well of anti-Histidine-HRP monoclonal detection antibody at 1:400 in diluent and incubate at room temperature for 1 h. Then wash 4 times with PBS/0.5% Tween 20. Add 100 μl of TMB substrate (Pierce 34028) and incubate at room temperature for up to 5 min. Add 50 μl of Stop solution (2N Sulfuric Acid) to each well and read plate at 450 nm and correct for plastic reading at 570 nm.

[4] = molecular target: T1, human complement C3b protein; experiment: solution equilibrium titration (SET), ECL detection, Fab
[5] = molecular target: T2, cynomolgus complement C3b protein; experiment: as above
[6] = molecular target: T1, human complement C3b protein; experiment: SPR (Biacore), C3b captured by anti-C3d antibody, Fab as analyte
[7] = molecular target: T2, cynomolgus complement C3b protein; experiment: as above
human C5 [8] = molecular target: T4, human C5 (human, UniProt P01031 19-673; P01031 678-1676); experiment: cross reactivity, capture ELISA with anti-C5 capture antibody, anti-His detection
T4 construct: Captured by an anti-C5 antibody in the ELISA

[9] = molecular target: T1, human complement C3b protein; experiment: cell-based or functional assay; remark: listed apart in the source
[10] = molecular target: T1, human complement C3b protein; experiment: ELISA, C3b or C3 captured by anti-C3d antibody
Experimental: The C3b antibodies were examined to determine whether they were selective for binding to C3b relative to the C3b precursor C3. Briefly, binding selectivity for C3b was determined by performing the following steps. Coat Maxisorp plate Nunc (442404) with anti-C3d rabbit monoclonal (abcam 17453) at 2 μg/ml in Carbonate Buffer at 100 μl/well. Seal plates and incubate at 4° C. overnight. Aspirate plates and wash 3 times with PBS/0.5% Tween 20. Block plates with Diluent (PBS, 4% BSA Fraction V (Fisher ICN16006980), 0.1% Tween 20 (Sigma P1379), 0.1% Triton X-100 (Sigma P234729)) and incubate for 2 h at room temperature or overnight at 4° C. Then wash plates once with PBS/0.5% Tween 20. Dilute purified C3b (complement technologies A114 lot 21) and C3 (complement technologies A113c) at 1 μg/ml in diluent and plate 100 μl per well. Incubate for 1 h at room temperature. Then wash 3 times with PBS/0.5% Tween 20.
Dilute Fabs at 100 nM and subsequent dilutions (or higher concentration) in diluent and plate 100 μl per well. Incubate at room temperature for 1 h. Wash plates 3 times with PBS/0.5% Tween 20. Add 100 μl/well of anti-Histidine-HRP monoclonal detection antibody at 1:400 in diluent and incubate at room temperature for 1 h. Then wash 4 times with PBS/0.5% Tween 20. Add 100 μl of TMB substrate (Pierce 34028) and incubate at room temperature for up to 5 min. Add 50 μl of Stop solution (2N Sulfuric Acid) to each well and read plate at 450 nm and correct for plastic reading at 570 nm.

human C3d [11] = molecular target: T3, human C3d; experiment: C3d binding ELISA, IgG titrated from about 0.006 to 100 nM
[12] = molecular target: T1, human complement C3b protein; experiment: SPR (Biacore T100), C3b captured by anti-C3d antibody, IgG as analyte, 1:1 model
[13] = molecular target: T2, cynomolgus complement C3b protein; experiment: as above
[14] = molecular target: T1, human complement C3b protein; experiment: AlphaScreen bead proximity, C3b-Acceptor beads pre-incubated with antibody, then biotinylated fH and SA-Donor beads; blocked ligand: fH [C]
Experimental: In brief, purified C3b and fP were conjugated to unconjugated acceptor or donor beads (PerkinElmer) using AminoLink Reductant (Pierce) during a 48 h incubation at room temperature. Beads were quenched using Carboxymethoxylamine Hemihydrochloride (Aldrich), and purified by centrifugation at 13000 rpm and three washes with 0.1M TBST. Purified fB(D24G/N260D) and fH were biotinylated during a 30 min incubation with 20-fold molar excess of NHS-Chromogenic-biotin (Pierce) at room temperature, and purified using Zeba 0.5 ml desalting columns (Pierce).
For C3b-C3b and C3b-fP proximity, Fabs or IgGs respectively were pre-incubated with C3b-Acceptor beads (20 μg/ml) for 60 min at room temperature. C3b-Donor beads or fP-Donor beads (20 μg/ml) were then added, and the plate was incubated overnight at room temperature before reading. For C3b-fB and C3b-fH proximity, antibodies were pre-incubated with C3b-Acceptor beads (20 μg/ml) for 60 minutes at room temperature. Biotinylated fB(D24G/N260D) or fH were then added, and incubated for 60 minutes at room temperature. SA-Donor beads were then added (20 μg/ml) and the plate was incubated overnight at room temperature before reading. Plates were read on the BMG Pherastar (ex=680, em=520-620).

human C5 [15] = molecular target: T4, human C5; experiment: Direct ELISA at 2 ug/ml C5, 200 nM Fab

T4 sequence (P01031 19-673 limits assumed, chain 1 of 2): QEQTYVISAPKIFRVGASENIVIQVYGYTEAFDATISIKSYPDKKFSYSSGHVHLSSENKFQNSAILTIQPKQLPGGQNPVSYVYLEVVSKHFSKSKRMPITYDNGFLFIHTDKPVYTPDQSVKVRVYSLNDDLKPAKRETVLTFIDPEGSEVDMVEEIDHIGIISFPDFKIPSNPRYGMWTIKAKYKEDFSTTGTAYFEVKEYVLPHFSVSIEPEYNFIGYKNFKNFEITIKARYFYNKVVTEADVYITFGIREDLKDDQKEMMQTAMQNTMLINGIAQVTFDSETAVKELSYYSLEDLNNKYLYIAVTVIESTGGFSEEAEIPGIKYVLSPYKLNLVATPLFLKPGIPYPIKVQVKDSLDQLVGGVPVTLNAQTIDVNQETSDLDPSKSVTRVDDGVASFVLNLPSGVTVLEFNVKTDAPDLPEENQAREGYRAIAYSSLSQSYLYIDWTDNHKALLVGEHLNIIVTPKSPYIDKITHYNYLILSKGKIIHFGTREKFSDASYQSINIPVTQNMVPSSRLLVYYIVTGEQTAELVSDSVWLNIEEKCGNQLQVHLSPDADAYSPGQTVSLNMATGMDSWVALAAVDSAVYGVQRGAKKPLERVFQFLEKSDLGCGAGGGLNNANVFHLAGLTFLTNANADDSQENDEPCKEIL
T4 sequence (P01031 678-1676 limits assumed, chain 2 of 2): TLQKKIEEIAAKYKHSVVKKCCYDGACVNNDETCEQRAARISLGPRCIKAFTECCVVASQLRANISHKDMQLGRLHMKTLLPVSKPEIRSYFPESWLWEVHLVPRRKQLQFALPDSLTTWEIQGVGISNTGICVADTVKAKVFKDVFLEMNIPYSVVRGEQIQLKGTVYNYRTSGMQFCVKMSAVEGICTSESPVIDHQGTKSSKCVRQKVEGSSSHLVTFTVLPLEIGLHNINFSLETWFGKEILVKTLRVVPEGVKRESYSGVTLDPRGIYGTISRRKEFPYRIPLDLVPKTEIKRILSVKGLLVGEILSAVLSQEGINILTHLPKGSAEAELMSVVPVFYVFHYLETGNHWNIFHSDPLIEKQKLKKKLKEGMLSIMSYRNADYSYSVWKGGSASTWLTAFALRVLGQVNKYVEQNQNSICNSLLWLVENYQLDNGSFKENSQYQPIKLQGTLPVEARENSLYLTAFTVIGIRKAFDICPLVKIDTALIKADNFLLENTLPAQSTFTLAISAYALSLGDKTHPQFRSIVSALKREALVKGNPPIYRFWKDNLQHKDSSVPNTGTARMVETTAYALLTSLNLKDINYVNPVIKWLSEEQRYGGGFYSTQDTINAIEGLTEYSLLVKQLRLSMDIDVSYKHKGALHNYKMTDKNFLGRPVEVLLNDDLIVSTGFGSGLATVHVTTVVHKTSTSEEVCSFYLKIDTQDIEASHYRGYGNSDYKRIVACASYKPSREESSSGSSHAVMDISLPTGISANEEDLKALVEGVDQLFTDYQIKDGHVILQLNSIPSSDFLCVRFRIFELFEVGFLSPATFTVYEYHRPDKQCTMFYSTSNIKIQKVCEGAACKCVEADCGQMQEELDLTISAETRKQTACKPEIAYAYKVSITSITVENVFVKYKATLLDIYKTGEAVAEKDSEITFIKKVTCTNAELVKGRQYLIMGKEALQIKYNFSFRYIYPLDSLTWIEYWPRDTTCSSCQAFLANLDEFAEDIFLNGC
T3 sequence (P01024 1002-1303 limits assumed): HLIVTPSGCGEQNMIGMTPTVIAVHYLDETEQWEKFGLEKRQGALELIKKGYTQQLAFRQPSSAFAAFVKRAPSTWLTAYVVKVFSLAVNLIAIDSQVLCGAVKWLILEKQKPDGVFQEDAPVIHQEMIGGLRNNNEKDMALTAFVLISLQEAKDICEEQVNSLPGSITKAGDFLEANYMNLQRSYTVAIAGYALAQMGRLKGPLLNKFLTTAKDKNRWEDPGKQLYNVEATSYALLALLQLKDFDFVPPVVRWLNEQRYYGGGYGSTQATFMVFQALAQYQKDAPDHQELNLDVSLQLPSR
T1 sequence (P01024 23-667 P314L, chain 1 of 2): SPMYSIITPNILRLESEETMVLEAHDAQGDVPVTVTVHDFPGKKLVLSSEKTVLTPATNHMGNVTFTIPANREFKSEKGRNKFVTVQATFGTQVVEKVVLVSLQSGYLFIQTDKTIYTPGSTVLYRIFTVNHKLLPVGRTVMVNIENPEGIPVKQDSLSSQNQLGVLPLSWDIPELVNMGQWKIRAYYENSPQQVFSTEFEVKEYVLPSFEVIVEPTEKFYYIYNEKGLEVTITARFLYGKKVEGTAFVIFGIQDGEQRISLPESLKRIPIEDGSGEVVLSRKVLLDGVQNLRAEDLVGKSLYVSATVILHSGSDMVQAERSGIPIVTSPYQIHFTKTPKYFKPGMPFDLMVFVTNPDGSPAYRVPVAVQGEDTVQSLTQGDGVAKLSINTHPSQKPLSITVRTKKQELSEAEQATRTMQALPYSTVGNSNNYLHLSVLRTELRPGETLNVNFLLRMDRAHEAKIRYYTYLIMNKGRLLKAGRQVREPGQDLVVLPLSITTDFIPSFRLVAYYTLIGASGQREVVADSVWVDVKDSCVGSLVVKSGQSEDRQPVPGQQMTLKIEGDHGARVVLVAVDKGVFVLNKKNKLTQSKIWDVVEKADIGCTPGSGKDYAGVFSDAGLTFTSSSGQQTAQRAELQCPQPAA
T1 sequence (P01024 749-1663, chain 2 of 2): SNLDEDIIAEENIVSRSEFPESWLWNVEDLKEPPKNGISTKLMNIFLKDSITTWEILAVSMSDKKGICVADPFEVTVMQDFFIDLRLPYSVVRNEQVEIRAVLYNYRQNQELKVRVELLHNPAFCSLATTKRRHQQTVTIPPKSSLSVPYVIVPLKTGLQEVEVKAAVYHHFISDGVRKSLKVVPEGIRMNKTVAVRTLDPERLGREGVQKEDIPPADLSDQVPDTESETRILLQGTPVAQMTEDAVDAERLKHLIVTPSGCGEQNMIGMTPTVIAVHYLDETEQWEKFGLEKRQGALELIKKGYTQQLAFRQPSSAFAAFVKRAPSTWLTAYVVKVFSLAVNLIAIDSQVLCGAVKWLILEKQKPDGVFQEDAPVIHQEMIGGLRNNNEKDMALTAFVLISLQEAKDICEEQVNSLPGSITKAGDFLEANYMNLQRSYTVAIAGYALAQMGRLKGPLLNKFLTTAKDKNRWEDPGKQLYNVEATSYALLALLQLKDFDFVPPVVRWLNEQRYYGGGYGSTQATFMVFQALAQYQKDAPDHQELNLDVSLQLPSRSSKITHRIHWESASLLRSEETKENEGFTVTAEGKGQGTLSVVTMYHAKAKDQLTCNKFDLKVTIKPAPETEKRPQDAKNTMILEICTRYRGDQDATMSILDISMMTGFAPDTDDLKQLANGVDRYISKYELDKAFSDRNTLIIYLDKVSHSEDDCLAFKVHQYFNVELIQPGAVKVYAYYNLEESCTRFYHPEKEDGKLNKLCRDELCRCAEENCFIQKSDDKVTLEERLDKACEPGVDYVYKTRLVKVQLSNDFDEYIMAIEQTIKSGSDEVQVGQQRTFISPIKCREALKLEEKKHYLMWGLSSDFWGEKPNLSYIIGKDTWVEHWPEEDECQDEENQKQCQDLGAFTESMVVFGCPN

B1: MOR09136 Fab (Fab, V domains shown)
VH: QVQLVQSGAEVKKPGSSVKVSCKASGGTFSSYTFSWVRQAPGQGLEWMGNILPIFGDANYAQKFQGRVTITADESTSTAYMELSSLRSEDTAVYYCARNKGAFYYMSTYPSLDVWGQGTLVTVSS
VL: DIQMTQSPSSLSASVGDRVTITCRASQNINYYLNWYQQKPGKAPKLLIYDAFSLQSGVPSRFSGSGSGTDFTLTISSLQPEDFATYYCQQSWSVPPFTFGQGTKVEIKR
notes: also called Fab 9136
C3b Dep (nM), human serum, IC50 [1]: 8 nM
HA (nM), 10% human serum, IC50 [1]: 32 nM
MAC Dep (nM), human serum, IC50 [1]: 2 nM
C3b Dep (nM), cyno serum, IC50 [2]: 3 nM
HA (nM), 10% cyno serum, IC50 [2]: 52 nM
MAC Dep (nM), cyno serum, IC50 [2]: 3 nM
binding result (human C3d [3]): no binding
Kd [4]: 0.096 nM
Kd [5]: 0.016 nM
Kd [6]: 0.075 nM
Kd [7]: 0.005 nM
binding result (human C5 [8]): no binding

B2: MOR09609 IgG (antibody, V domains shown)
VH: EVQLVQSGAEVKKPGSSVKVSCKASGGTFSSYTFSWVRQAPGQGLEWMGNILPIFGDANYAQKFQGRVTITADESTSTAYMELSSLRSEDTAVYYCARNKGAFYYMSTYPSLDVWGQGTLVTVSS
VL: DIQMTQSPSSLSASVGDRVTITCRASQNINYYLNWYQQKPGKAPKLLIYDAFSLQSGVPSRFSGSGSGTDFTLTISSLQPEDFATYYCQQSWSVPPFTFGQGTKVEIKR
notes: Germlined human IgG1 with leucines 234 and 235 changed to alanines, kappa; also called antibody 9609
MAC deposition on zymosan, IC50 [9]: ≤ 5 nM
hemolysis of rabbit red blood cells, 10% human or cynomolgus serum, IC50 [9]: ≤ 50 nM
inhibition of C3a and C5a generation during hemolysis, IC50 [9]: ≤ 50 nM
fold binding selectivity for C3b over C3 [10]: > 1000 fold
binding result (human C3d [11]): no binding (tested: 100 nM)
Kd [12]: 0.0022 nM
koff [12]: 3.16e-06 s⁻¹
kon [12]: 1.44e+06 M⁻¹ s⁻¹
Kd [13]: 0.0228 nM
koff [13]: 4.6e-05 s⁻¹
kon [13]: 2.02e+06 M⁻¹ s⁻¹
IC50 (read off the curve) [14]: ~0.1 nM

B4: MOR09141 Fab (Fab, V domains shown)
VH: QVQLVQSGAEVKKPGSSVKVSCKASGGTFSSYTFSWVRQAPGQGLEWMGNILPIFGDANYAQKFQGRVTITADESTSTAYMELSSLRSEDTAVYYCARNKGAFYYMSTYPSLDVWGQGTLVTVSS
VL: DIQMTQSPSSLSASVGDRVTITCRASQNINYYLNWYQQKPGKAPKLLIYDAFSLQSGVPSRFSGSGSGTDFTLTISSLQPEDFATYYCQQSIAVPPFTFGQGTKVEIKR
notes: also called Fab 9141
C3b Dep (nM), human serum, IC50 [1]: 7 nM
HA (nM), 10% human serum, IC50 [1]: 27 nM
MAC Dep (nM), human serum, IC50 [1]: 1 nM
C3b Dep (nM), cyno serum, IC50 [2]: 9 nM
HA (nM), 10% cyno serum, IC50 [2]: 43 nM
MAC Dep (nM), cyno serum, IC50 [2]: 2 nM
binding result (human C3d [3]): no binding
Kd [4]: 0.1 nM
Kd [5]: 0.02 nM
Kd [6]: 0.039 nM
Kd [7]: 0.004 nM
binding result (human C5 [8]): no binding

Now from value to binder, other results behind:

MAC deposition on zymosan, IC50 [9]: ≤ 5 nM
fold binding selectivity for C3b over C3 [10]: > 1000 fold
binding result (human C3d [11]): no binding (tested: 100 nM)
Kd [12]: 0.0049 nM
koff [12]: 4.02e-06 s⁻¹
kon [12]: 820000 M⁻¹ s⁻¹
Kd [13]: 0.0335 nM
koff [13]: 6.41e-05 s⁻¹
kon [13]: 1.91e+06 M⁻¹ s⁻¹
IC50 (read off the curve) [14]: ~0.2 nM
B3: MOR09610 IgG (antibody, V domains shown)
VH: EVQLVQSGAEVKKPGSSVKVSCKASGGTFSSYTFSWVRQAPGQGLEWMGNILPIFGDANYAQKFQGRVTITADESTSTAYMELSSLRSEDTAVYYCARNKGAFYYMSTYPSLDVWGQGTLVTVSS
VL: DIQMTQSPSSLSASVGDRVTITCRASQNINYYLNWYQQKPGKAPKLLIYDAFSLQSGVPSRFSGSGSGTDFTLTISSLQPEDFATYYCQQSIAVPPFTFGQGTKVEIKR
notes: Germlined human IgG1 with leucines 234 and 235 changed to alanines, kappa; also called antibody 9610
hemolysis of rabbit red blood cells, 10% human or cynomolgus serum, IC50 [9]: ≤ 50 nM
inhibition of C3a and C5a generation during hemolysis, IC50 [9]: ≤ 50 nM

binding result (human C5 [15]): no binding (tested: 200 nM)
B5: 9609 (Fab, V domains shown)
VH: EVQLVQSGAEVKKPGSSVKVSCKASGGTFSSYTFSWVRQAPGQGLEWMGNILPIFGDANYAQKFQGRVTITADESTSTAYMELSSLRSEDTAVYYCARNKGAFYYMSTYPSLDVWGQGTLVTVSS
VL: DIQMTQSPSSLSASVGDRVTITCRASQNINYYLNWYQQKPGKAPKLLIYDAFSLQSGVPSRFSGSGSGTDFTLTISSLQPEDFATYYCQQSWSVPPFTFGQGTKVEIK
notes: the IgG is m13; also called 9609 Fab format; MOR9609 Fab

C3b Dep (nM), cyno serum, IC50 [2]: 5 nM
HA (nM), 10% cyno serum, IC50 [2]: 62 nM
MAC Dep (nM), cyno serum, IC50 [2]: 6 nM
Kd [5]: 0.078 nM
Kd [7]: 0.009 nM
binding result (human C5 [8]): no binding
B6: MOR09373 Fab (Fab, V domains shown)
VH: QVQLVQSGAEVKKPGASVKVSCKASGYTFTSYSMHWVRQAPGQGLEWMGLINPYNGNTHYAQKFQGRVTMTRDTSISTAYMELSSLRSEDTAVYYCARMLRFDVWGQGTLVTVSS
VL: DIALTQPASVSGSPGQSITISCTGTSSDGGGYNYVSWYQQHPGKAPKLMIYGVSNRPSGVSNRFSGSKSGNTASLTISGLQAEDEADYYCQTYTRYSDSPVFGGGTKLTVLG
notes: also called Fab 9373

Kd [13]: 0.00713 nM
koff [13]: 5.95e-05 s⁻¹
kon [13]: 8.34e+06 M⁻¹ s⁻¹
B7: MOR09674 IgG (antibody, V domains shown)
VH: EVQLVQSGAEVKKPGASVKVSCKASGYTFTSYSMHWVRQAPGQGLEWMGLINPYNGNTHYAQKFQGRVTMTRDTSISTAYMELSSLRSEDTAVYYCARMLRFDVWGQGTLVTVSS
VL: ESALTQPASVSGSPGQSITISCTGTSSDGGGYNYVSWYQQHPGKAPKLMIYGVSNRPSGVSNRFSGSKSGNTASLTISGLQAEDEADYYCQTYTRYSDSPVFGGGTKLTVLG
notes: Germlined human IgG1 with leucines 234 and 235 changed to alanines, lambda; also called antibody 9674

From patent publication US20100291106A1 (Novartis, published 2010)
